# Laboratory results published in patent publication US20190225703A1 (INNATE PHARMA, published 2019).
# T1: recombinant human CD73-His extracellular domain protein, soluble dimer (human, UniProt P21589 27-547)
# T1 construct: also called huCD73 protein; human recombinant soluble dimeric CD73
# T1 sequence: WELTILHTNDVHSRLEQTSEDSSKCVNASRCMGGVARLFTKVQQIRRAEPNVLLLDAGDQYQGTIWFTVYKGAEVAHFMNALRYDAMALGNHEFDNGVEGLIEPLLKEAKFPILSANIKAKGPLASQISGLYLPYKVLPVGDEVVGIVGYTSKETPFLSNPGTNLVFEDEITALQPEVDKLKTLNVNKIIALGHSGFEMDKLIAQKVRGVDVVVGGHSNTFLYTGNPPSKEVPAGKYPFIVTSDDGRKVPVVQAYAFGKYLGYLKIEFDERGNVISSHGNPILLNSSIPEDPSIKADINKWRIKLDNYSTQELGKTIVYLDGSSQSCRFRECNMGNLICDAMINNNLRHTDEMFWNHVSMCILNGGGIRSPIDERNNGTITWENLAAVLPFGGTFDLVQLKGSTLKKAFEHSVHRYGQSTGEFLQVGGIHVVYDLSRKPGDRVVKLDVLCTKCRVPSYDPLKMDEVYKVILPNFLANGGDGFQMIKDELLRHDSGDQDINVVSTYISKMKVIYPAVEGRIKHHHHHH
# T2: mouse CD73 expressed at the cell surface (mouse, UniProt Q61503 29-551)
# T2 construct: whole, on cells; Recombinant cell line expressing mouse CD73; also called moCD73
# T2 sequence (looked up): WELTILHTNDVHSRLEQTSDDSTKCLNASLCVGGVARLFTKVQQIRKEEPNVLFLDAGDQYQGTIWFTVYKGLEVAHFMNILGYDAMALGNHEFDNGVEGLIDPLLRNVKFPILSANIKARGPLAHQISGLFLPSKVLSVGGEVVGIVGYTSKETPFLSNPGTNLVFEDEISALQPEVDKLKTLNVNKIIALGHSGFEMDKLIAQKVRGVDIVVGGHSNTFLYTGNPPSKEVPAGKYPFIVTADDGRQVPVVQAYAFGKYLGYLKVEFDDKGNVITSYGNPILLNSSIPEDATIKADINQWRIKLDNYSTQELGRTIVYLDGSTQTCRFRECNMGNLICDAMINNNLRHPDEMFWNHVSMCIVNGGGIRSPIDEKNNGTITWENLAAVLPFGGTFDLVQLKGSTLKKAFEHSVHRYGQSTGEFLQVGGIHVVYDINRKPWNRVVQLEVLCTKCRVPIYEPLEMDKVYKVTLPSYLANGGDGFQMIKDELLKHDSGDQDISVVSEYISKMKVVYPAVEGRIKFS
# Legend:
# [1] = biological target: T1, recombinant human CD73-His …; test: SPR (Biacore T100, 25 °C), antibody captured on Protein-A, soluble dimeric CD73 injected 1.23 to 300 nM, 1:1 kinetic model, bivalent affinity
# Method: SPR measurements were performed on a Biacore T100 apparatus (Biacore GE Healthcare) at 25° C. In all Biacore experiments HBS-EP+(Biacore GE Healthcare) and NaOH 10 mM served as running buffer and regeneration buffer respectively. Sensorgrams were analyzed with Biacore T100 Evaluation software. Protein-A was purchase from (GE Healthcare). Human soluble dimeric CD73 proteins were cloned, produced and purified at Innate Pharma.
# Protein-A proteins were immobilized covalently to carboxyl groups in the dextran layer on a Sensor Chip CMS. The chip surface was activated with EDC/NHS (N-ethyl-N′-(3-dimethylaminopropyl) carbodiimide hydrochloride and N-hydroxysuccinimide (Biacore GE Healthcare). Protein-A was diluted to 10 μg/ml in coupling buffer (10 mM acetate, pH 5.6) and injected until the appropriate immobilization level was reached (i.e. 2000 RU). Deactivation of the remaining activated groups was performed using 100 mM ethanolamine pH 8 (Biacore GE Healthcare).
# Affinity study was carried out according to a standard Capture-Kinetic protocol recommended by the manufacturer (Biacore GE Healthcare kinetic wizard). Serial dilutions of human recombinant soluble dimeric CD73 proteins, ranging from 1.23 to 300 nM were sequentially injected over the captured anti-CD73 antibodies and allowed to dissociate for 10 min before regeneration. […]
# [2] = biological target: T2, mouse CD73 expressed at the cell surface; test: flow cytometry titration on a cell line expressing mouse CD73
# Method: 10⁵ cells resuspended in PBS/0.2% BSA/0.02% NaN3 (named “staining buffer”) are distributed into round bottom 96W-microplates. Dose-range of anti-CD73 antibodies was added to the plates and cells are incubated for 45 min at 4° C. Cells were washed three times in staining buffer by spinning plates at 400 g for 3 min at 4° C. PE-coupled goat anti-mouse or goat anti-human IgG Fc fragment secondary antibodies (Beckman Coulter) diluted in staining buffer were added to the cells and plates are incubated for 30 additional minutes at 4° C. Cells were washed three times as described above and analyzed on an Accury C6 flow cytometer equipped with an HTFC plate reader.
# Median of fluorescence vs. antibodies concentration was plotted on graphs and EC50 is calculated using GraphPad Prism program.
binder,measurement,setting,value
"antibody 7H10 (antibody, human IgG1, V domains shown) VH: DVQLQESGPGLVKPSQSLSLTCTVTGYSITSDYAWNWIRQFPGNKLEWMGYIIYSGSTSYNPSLNSRISITRDTSKNQFFLQLNSVTTEDTATYYCAREAYLYFDYWGQGTTLTVSS VL: DIQMTQTTSSLSASLGDRVTISCRASQDINNYLNWYQQKPDGTVKLLIYYTSRLHSGVPSRFSGSGSGTDYSLTISNLEREDVATYFCQQGNTLPWTFGGGTKLEIK",Kd,[1],0.527 nM
same,binding result,[2],no binding (tested: 10 µg/ml)
